Data published in patent publication US20240287208A1 (CONCEPT TO MEDICINE BIOTECH, published 2024).

Legend:
[1] = target: T1, human CD40 on the cell surface (human, UniProt P25942 21-277); experiment: FACS, Jurkat cells overexpressing human CD40, PE anti-human IgG, MFI
T1 construct: whole, on cells; also called cell surface CD40; Jurkat-CD40
Procedure: To evaluate the binding affinity of 5T4-CD40 bispecific antibodies to cell surface CD40, bispecific antibodies with formats of b 1 (42p155z2), b12 (42p155z2), b13 (42p155z2), b16 (42p155z2), b17 (42p155z2) and b18 (2p1130) were tested in Jurkat cell lines that overexpressed CD40 by FACS. A total number of 1×10⁵ Jurkat-CD40 cells in each well were incubated with 5-fold serially diluted antibodies starting from 100 nM for 30 minutes at 4° C. in FACS buffer. After wash by FACS buffer, PE conjugated-anti-human IgG antibody was added to each well and incubated at 4° C. for 30 minutes. After wash, MFI of PE was evaluated by MACSQuant Analyzer 16.

[2] = target: T1, human CD40 on the cell surface; experiment: FACS, human dendritic cells, MFI

T1 sequence (P25942 21-277): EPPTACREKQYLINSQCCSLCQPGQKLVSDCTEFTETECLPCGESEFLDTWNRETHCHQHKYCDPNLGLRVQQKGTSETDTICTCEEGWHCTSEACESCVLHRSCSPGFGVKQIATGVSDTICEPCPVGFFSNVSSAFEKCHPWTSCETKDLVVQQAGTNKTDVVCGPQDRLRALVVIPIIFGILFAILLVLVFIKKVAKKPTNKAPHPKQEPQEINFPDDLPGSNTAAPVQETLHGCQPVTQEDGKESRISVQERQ

B1: b16 (42p155z2) anti-5T4/CD40 bispecific antibody (bispecific antibody, human IgG1, kappa, N297A)
heavy 1: EVQLQQSGPELVKPGASVKISCKASGYAFSSSWMNWVKQRPGKGLEWIGRIYREDGHTNYNGKFKGKATLTADKSSTTAYMQLTSLTSEDSAVYFCANGGAMDYWGQGTSVTVSSASTKGPSVFPLAPSSKSTSGGTAALGCLVKDYFPEPVTVSWNSGALTSGVHTFPAVLQSSGLYSLSSVVTVPSSSLGTQTYICNVNHKPSNTKVDKKVEPKSCDKTHTCPPCPAPELLGGPSVFLFPPKPKDTLMISRTPEVTCVVVDVSHEDPEVKFNWYVDGVEVHNAKTKPREEQYASTYRVVSVLTVLHQDWLNGKEYKCKVSNKALPAPIEKTISKAKGQPREPQVCTLPPSREEMTKNQVSLSCAVKGFYPSDIAVEWESNGQPENNYKTTPPVLDSDGSFFLVSKLTVDKSRWQQGNVFSCSVMHEALHNHYTQKSLSLSPGK
light: DIQMTQSTSSLSASLGDRVTISCRASQDISNYLNWYQQKPDGTVKLLIYYTSRLHSGVPSRFSGSGSGTDYSLTISNLEQEDIATYFCQQDNTLPWTFGGGTKLEIKRTVAAPSVFIFPPSDEQLKSGTASVVCLLNNFYPREAKVQWKVDNALQSGNSQESVTEQDSKDSTYSLSSTLTLSKADYEKHKVYACEVTHQGLSSPVTKSFNRGEC
heavy 2: not shown
notes: also called 1+2 b16 format; chimeric antibody b16 (42p155z2)
EC50 (read off the curve) [1]: ~0.5 nM
EC50 (read off the curve) [2]: ~0.7 nM
